Measured values from patent US20230242607A1 (EUTILEX, published 2023).
Read-outs that look alike come from different tables or passages of the source.

T1: IL2-RB (UniProt P14784 27-239, limits assumed)
T1 construct: Bought recombinant protein (Sino); also called CD122; IL-2Rβ
T1 sequence (looked up): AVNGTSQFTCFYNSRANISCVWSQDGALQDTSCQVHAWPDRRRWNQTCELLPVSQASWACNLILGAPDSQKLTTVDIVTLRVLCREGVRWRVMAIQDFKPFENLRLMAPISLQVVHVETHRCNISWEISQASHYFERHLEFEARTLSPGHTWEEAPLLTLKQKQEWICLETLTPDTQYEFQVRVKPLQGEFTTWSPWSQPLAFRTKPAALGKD

T2: IL2-RA (UniProt P01589 22-213, limits assumed)
T2 construct: Bought recombinant protein (Sino); also called CD25; IL-2Rα
T2 sequence (looked up): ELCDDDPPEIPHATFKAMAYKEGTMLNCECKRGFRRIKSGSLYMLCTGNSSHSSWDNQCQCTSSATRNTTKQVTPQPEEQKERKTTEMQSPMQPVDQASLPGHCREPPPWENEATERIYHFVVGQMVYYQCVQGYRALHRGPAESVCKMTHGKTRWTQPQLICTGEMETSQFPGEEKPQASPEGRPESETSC


Tests used:
Assay in all cases: SPR, Biacore T200; IL-2-Fc on CM5 chip, receptor injected; 1:1 model
IL2-RB [1] = target: T1, IL2-RB
Method: The affinity of IL-2 variants to IL-2 receptors, IL2-RA and IL2-RB, was analyzed using surface plasmon resonance (SPR). The IL-2 variants were diluted to a concentration of 2 ug/mL then immobilized on CM5 chip (GE Healthcare, Cat#BR-1005-30). The receptors IL-2RA or IL-2RB (Sino) were injected at concentrations 100, 50, 25, 12.5, 6.25, 3.125 nM with an association time of 150 seconds and dissociation time of 240 seconds. Biacore T200 (GE healthcare) was used to measure and analyze affinity of each IL-2 variant, where the results were analyzed with a 1:1 binding model by BIAevaluation software.

IL2-RA = target: T2, IL2-RA
Method: (§1) The affinity of additional IL-2 variants to IL-2 receptors, IL2-RA and IL2-RB, was analyzed using surface plasmon resonance (SPR). The IL-2 variants were diluted to a concentration of 2 ug/mL then immobilized on CM5 chip (GE Healthcare, Cat#BR-1005-30). Biacore T200 (GE healthcare) was used to measure and analyze affinity of each IL-2 variant, where the results were analyzed with a 1:1 binding model by BIAevaluation software, as described in Example 4.

IL2-RB [2] = target: T1, IL2-RB; remark: listed apart in the source
Method: as §1

Binder	Kd (IL2-RB [1]) [nM]	koff (IL2-RB [1]) [s⁻¹]	kon (IL2-RB [1]) [M⁻¹ s⁻¹]	Kd (IL2-RA) [nM]	koff (IL2-RA) [s⁻¹]	kon (IL2-RA) [M⁻¹ s⁻¹]	Kd (IL2-RB [2]) [nM]	koff (IL2-RB [2]) [s⁻¹]	kon (IL2-RB [2]) [M⁻¹ s⁻¹]
IL2_V3 Fc fusion protein (Fc fusion) APTSSSTKKTQLQLEHLLLDLQMILNGINNYKNPKLTAMLTKKFYMPKKATELKHLQCLEEELKPLEEVLNLAQSKNFHFDPRDLVSNINVFVLELKGSETTFMCEYADETATIVEFLNRWITFCQSIISTLTGGGGSSNTKVDKRVEPKSCDKTHTCPPCPAPPVAGPSVFLFPPKPKDTLMISRTPEVTCVVVDVSHEDPEVQFNWYVDGVEVHNAKTKPREEQFNSTFRVVSVLTVVHQDWLNGKEYKCKVSNKGLPAPIEKTISKTKGQPREPQVYTLPPSREEMTKNQVSLTCLVKGFYPSDIAVEWESNGQPENNYKTTPPMLDSDGSFFLYSKLTVDKSRWQQGNVFSCSVMHEALHNHYTQKSLSLSPGK	218	0.0179	82400						
IL2_V2 Fc fusion protein (Fc fusion) APTSSSTKKTQLQLEHLLLDLQMILNGINNYKNPKLTAMLTKKFYMPKKATELKHLQCLEEELKPLEEVLNLAQSKNFHFRPRDVVSNINVFVLELKGSETTFMCEYADETATIVEFLNRWITFCQSIISTLTGGGGSSNTKVDKRVEPKSCDKTHTCPPCPAPPVAGPSVFLFPPKPKDTLMISRTPEVTCVVVDVSHEDPEVQFNWYVDGVEVHNAKTKPREEQFNSTFRVVSVLTVVHQDWLNGKEYKCKVSNKGLPAPIEKTISKTKGQPREPQVYTLPPSREEMTKNQVSLTCLVKGFYPSDIAVEWESNGQPENNYKTTPPMLDSDGSFFLYSKLTVDKSRWQQGNVFSCSVMHEALHNHYTQKSLSLSPGK	124	0.0158	128000						
IL2_V4 Fc fusion protein (Fc fusion) APTSSSTKKTQLQLEHLLLDLQMILNGINNYKNPKLTAMLTKKFYMPKKATELKHLQCLEEELKPLEEVLNLAQSKNFHFDPRDVISNINVFVLELKGSETTFMCEYADETATIVEFLNRWITFCQSIISTLTGGGGSSNTKVDKRVEPKSCDKTHTCPPCPAPPVAGPSVFLFPPKPKDTLMISRTPEVTCVVVDVSHEDPEVQFNWYVDGVEVHNAKTKPREEQFNSTFRVVSVLTVVHQDWLNGKEYKCKVSNKGLPAPIEKTISKTKGQPREPQVYTLPPSREEMTKNQVSLTCLVKGFYPSDIAVEWESNGQPENNYKTTPPMLDSDGSFFLYSKLTVDKSRWQQGNVFSCSVMHEALHNHYTQKSLSLSPGK	29	0.00511	176000				8.99	0.00532	592000
IL2_V5 Fc fusion protein (Fc fusion) APTSSSTKKTQLQLEHLLLDLQMILNGINNYKNPKLTAMLTKKFYMPKKATELKHLQCLEEELKPLEEVLNLAQSKNFHFDPRDVVSNINVIVLELKGSETTFMCEYADETATIVEFLNRWITFCQSIISTLTGGGGSSNTKVDKRVEPKSCDKTHTCPPCPAPPVAGPSVFLFPPKPKDTLMISRTPEVTCVVVDVSHEDPEVQFNWYVDGVEVHNAKTKPREEQFNSTFRVVSVLTVVHQDWLNGKEYKCKVSNKGLPAPIEKTISKTKGQPREPQVYTLPPSREEMTKNQVSLTCLVKGFYPSDIAVEWESNGQPENNYKTTPPMLDSDGSFFLYSKLTVDKSRWQQGNVFSCSVMHEALHNHYTQKSLSLSPGK	76.7	0.00936	122000						

The remaining lines, values ahead:

Kd (IL2-RB [1]) [nM]	koff (IL2-RB [1]) [s⁻¹]	kon (IL2-RB [1]) [M⁻¹ s⁻¹]	Kd (IL2-RA) [nM]	koff (IL2-RA) [s⁻¹]	kon (IL2-RA) [M⁻¹ s⁻¹]	Kd (IL2-RB [2]) [nM]	koff (IL2-RB [2]) [s⁻¹]	kon (IL2-RB [2]) [M⁻¹ s⁻¹]	Binder
66.6	0.0116	174000							IL2_V1 Fc fusion protein (Fc fusion) APTSSSTKKTQLQLEHLLLDLQMILNGINNYKNPKLTAMLTKKFYMPKKATELKHLQCLEEELKPLEEVLNLAQSKNFHLDPRDVVSNINVFVLELKGSETTFMCEYADETATIVEFLNRWITFCQSIISTLTGGGGSSNTKVDKRVEPKSCDKTHTCPPCPAPPVAGPSVFLFPPKPKDTLMISRTPEVTCVVVDVSHEDPEVQFNWYVDGVEVHNAKTKPREEQFNSTFRVVSVLTVVHQDWLNGKEYKCKVSNKGLPAPIEKTISKTKGQPREPQVYTLPPSREEMTKNQVSLTCLVKGFYPSDIAVEWESNGQPENNYKTTPPMLDSDGSFFLYSKLTVDKSRWQQGNVFSCSVMHEALHNHYTQKSLSLSPGK
29.5	0.004	136000							supMD IL-2 Fc fusion protein (Fc fusion) APTSSSTKKTQLQLEHLLLDLQMILNGINNYKNPKLTAMLTKKFYMPKKATELKHLQCLEEELKPLEEVLNLAQSKNFHFDPRDVVSNINVFVLELKGSETTFMCEYADETATIVEFLNRWITFCQSIISTLTGGGGSSNTKVDKRVEPKSCDKTHTCPPCPAPPVAGPSVFLFPPKPKDTLMISRTPEVTCVVVDVSHEDPEVQFNWYVDGVEVHNAKTKPREEQFNSTFRVVSVLTVVHQDWLNGKEYKCKVSNKGLPAPIEKTISKTKGQPREPQVYTLPPSREEMTKNQVSLTCLVKGFYPSDIAVEWESNGQPENNYKTTPPMLDSDGSFFLYSKLTVDKSRWQQGNVFSCSVMHEALHNHYTQKSLSLSPGK
			1230	0.00562	4560	7.5	0.00504	671000	IL2_V4_R38A_F42A Fc fusion protein (Fc fusion) APTSSSTKKTQLQLEHLLLDLQMILNGINNYKNPKLTAMLTAKFYMPKKATELKHLQCLEEELKPLEEVLNLAQSKNFHFDPRDVISNINVFVLELKGSETTFMCEYADETATIVEFLNRWITFCQSIISTLTGGGGSSNTKVDKRVEPKSCDKTHTCPPCPAPPVAGPSVFLFPPKPKDTLMISRTPEVTCVVVDVSHEDPEVQFNWYVDGVEVHNAKTKPREEQFNSTFRVVSVLTVVHQDWLNGKEYKCKVSNKGLPAPIEKTISKTKGQPREPQVYTLPPSREEMTKNQVSLTCLVKGFYPSDIAVEWESNGQPENNYKTTPPMLDSDGSFFLYSKLTVDKSRWQQGNVFSCSVMHEALHNHYTQKSLSLSPGK
			3.31	0.00227	685000	7.33	0.00556	759000	IL2_V4_R38A Fc fusion protein (Fc fusion) APTSSSTKKTQLQLEHLLLDLQMILNGINNYKNPKLTAMLTFKFYMPKKATELKHLQCLEEELKPLEEVLNLAQSKNFHFDPRDVISNINVFVLELKGSETTFMCEYADETATIVEFLNRWITFCQSIISTLTGGGGSSNTKVDKRVEPKSCDKTHTCPPCPAPPVAGPSVFLFPPKPKDTLMISRTPEVTCVVVDVSHEDPEVQFNWYVDGVEVHNAKTKPREEQFNSTFRVVSVLTVVHQDWLNGKEYKCKVSNKGLPAPIEKTISKTKGQPREPQVYTLPPSREEMTKNQVSLTCLVKGFYPSDIAVEWESNGQPENNYKTTPPMLDSDGSFFLYSKLTVDKSRWQQGNVFSCSVMHEALHNHYTQKSLSLSPGK
			6.75	0.000789	117000	9.43	0.00492	522000	IL2_V4_F42A Fc fusion protein (Fc fusion) APTSSSTKKTQLQLEHLLLDLQMILNGINNYKNPKLTRMLTAKFYMPKKATELKHLQCLEEELKPLEEVLNLAQSKNFHFDPRDVISNINVFVLELKGSETTFMCEYADETATIVEFLNRWITFCQSIISTLTGGGGSSNTKVDKRVEPKSCDKTHTCPPCPAPPVAGPSVFLFPPKPKDTLMISRTPEVTCVVVDVSHEDPEVQFNWYVDGVEVHNAKTKPREEQFNSTFRVVSVLTVVHQDWLNGKEYKCKVSNKGLPAPIEKTISKTKGQPREPQVYTLPPSREEMTKNQVSLTCLVKGFYPSDIAVEWESNGQPENNYKTTPPMLDSDGSFFLYSKLTVDKSRWQQGNVFSCSVMHEALHNHYTQKSLSLSPGK
